Data from patent US7592168B2, “Cephalosporin C acylase mutant and method for preparing 7-ACA using same” (Sandoz AG, priority 2003, dated 2009).

Tests used:
[1] = Specific activity of CPC acylase to CPC (PDAB colorimetric assay); assay type: biochemical; conditions: purified enzyme
Experimental: Each E. coli transformant was inoculated into 3 ml of a LB medium (1% Bacto-Tryptone, 0.5% Yeast Extract, 0.5% NaCl) containing 25 μg/ml of chloramphenicol and cultured at 30° C., 200 rpm for 16 hr with vigorous shaking. 50 μl of the culture solution was transformed to 50 ml of a new LB medium containing […] of chloramphenicol and further cultured at 25° C., 200 rpm for 48 hr with vigorous shaking. The culture solution was subjected to centrifugation at 4° C., 8,000 rpm for 10 min to separate a precipitate and the precipitate washed twice with 0.1 M Tris-HCl buffer solution (pH 8.0). This precipitate was suspended in 5 ml of the same buffer solution and subjected to ultra-sonication at 4° C. for 10 min. […]
The enzyme activity of CPC acylase mutant to CPC was measured according to the method described by Park et al. with minor modifications as follows (Park, et al., Kor. J. Appl. Microbiol. Biotechnol. 23: 559-564, 1995). A substrate solution was prepared by dissolving CPC (purity 74.2%; CJ Corp., Korea) in 0.1 M Tris-HCl buffer solution (pH 8.0) at a concentration of 20 mg/ml and adjusting pH to 8 with 1 N NaOH. […] After the reaction, the mixture (200 μl) of 50 mM NaOH and 20% glacial acetic acid (1:2) was added thereto to stop the reaction. 200 μl of the supernatant recovered from the reaction mixture by centrifugation was mixed with 40 μl of 0.5% (w/v) PDAB (p-dimethylaminobenzaldehyde; Sigma, USA) dissolved in a methanol and the reaction mixture was incubated at 37° C. for 10 min. After the reaction, the absorbance of reaction mixture was measured at 415 nm and quantified by comparing with a calibration curve of standard material. At this time, 1 unit has been defined as the amount of enzyme capable to produce 1 μmole of 7-ACA from CPC per minute. Meanwhile, the specific activity of CPC acylase mutant for CPC was determined by measuring the amount of protein remaining in the enzyme solution according to the method described by Bradford (Bradford, M., Anal. Biochem. 72: 248-254, 1976) and representing it as an active unit corresponding to 1 mg of protein. The reactivity of CPC acylase mutant to CPC was determined by the following steps of adding the same amount of protein to a reaction mixture, performing an enzyme reaction for a fixed time, measuring the amount of 7-ACA produced in the reaction mixture, and representing it as a relative value. The end-product inhibition by 7-ACA was determined by adding a protein corresponding to the same active unit to a reaction mixture, performing an enzyme reaction for a fixed time; measuring the amount of 7-ACA produced in the reaction mixture, and representing it as a relative value.

[2] = One-step conversion of CPC into 7-ACA (HPLC); assay type: biochemical; conditions: 50 mM CPC, pH 8.5, 25° C., 1 hr, purified enzyme
Experimental: E. coli BL21(DE3) transformant containing each one of pET29-TnS5αβ and pET29-S12 plasmids of Example <3-2> was cultivated in 5 l of a LB broth containing 20 μg/ml of kanamycin and 2% lactose at 25° C., 200 rpm for 72 hr with vigorous shaking. Further, E. coli MC1061(pBCPC) containing the wild-type CPC acylase gene was also cultivated in 10 l of a LB broth containing 25 μg/ml of chloramphenicol at 25° C., 200 rpm for 48 hr with vigorous shaking. After then, the wild-type CPC acylase, TnS5αβ and S12 CPC acylase mutants were purified from each culture broth according to the same method as described in Example <2-1>, respectively. The purified protein obtained above was subjected to dialysis with 50 mM phosphate buffer solution (pH 8.5), and the diffusate obtained by dialysis was used for a CPC conversion reaction.
After CPC was dissolved in 50 mM phosphate buffer solution (pH 8.5) at a final concentration of 50 mM, the purified enzyme solution dissolved in the same buffer solution was added to the CPC solution obtained above at a final concentration of 5 unit/mg to prepare […] of the reaction mixture. The reaction mixture was stirred at 25° C. for 1 hr to induce a CPC conversion reaction. At this time, in order to prevent pH of the reaction mixture from decreasing during the conversion reaction, when pH of the reaction mixture was reached to 8.4, 0.2 N NaOH solution was automatically injected to the reaction mixture by a pH regulator to constantly maintain pH of the reaction mixture at 8.5. 100 μl of the reaction mixture was taken from at a fixed time during the conversion reaction and immediately subjected to a HPLC analysis to quantify the amount of CPC and 7-ACA in the reaction mixture. […] In addition, the flow rate of mobile phase was 0.6 ml/min, the sample (20 μl) to be injected was prepared by appropriately diluting the reaction mixture with 50 mM phosphate buffer solution (pH 8.5), and its absorbance was detected at UV 250 nm.

B1: Wild-type: Pseudomonas sp. SE83 derived wild-type CPC acylase (AcyII), α-subunit SEQ ID NO: 4 and β-subunit SEQ ID NO: 5, from pBCPC (protein)
alpha: TMAAKTDREALQAALPPLSGSLSIPGLSAPVRVQRDGWGIPHIKASGEADAYRALGFVHAQDRLFQMELTRRKALGRAAEWLGAEAAEADILVRRLGMEKVCRRDFEALGAEAKDMLRAYVAGVNAFLASGAPLPIEYGLLGAEPEPWEPWHSIAVMRRLGLLMGSVWFKLWRMLALPVVGAANALKLRYDDGGQDLLCIPPGVEAERLEADLAALRPAVDALLKAMGG
beta: SNNWAVAPGRTATGRPILAGDPHRVFEIPGMYAQHHLACDRFDMIGLTVPGVPGFPHFAHNGKVAYCVTHAFMDIHDLYLEQFAEDGRTARFGNEFEPVAWRRDRIAVRGGADREFDIVETRHGPVIAGDPLEGAALTLRSVQFAETDLSFDCLTRMPGASTVAQLYDATRGWGLIDHNLVAGDVAGSIGHLVRARVPSRPRENGWLPVPGWSGEHEWRGWIPHEAMPRVIDPPGGLIVTANNRVVADDHPDYLCTDCHPPYRAERIMERLVASPAFAVDDAAAIHADTLSPHVGLLRARLEALGIQGSLPAEELRQTLIAWDGRMDAGSQAASAYNAFRRALTRLVTARSGLEQAIAHPFAAVPPGVSPQGQVWWAVPTLLRNDDAGMLKGWSWDEALSEALSVATQNLTGRGWGEEHRPRFTHPLSAQFPAWAALLNPVSRPIGGDGDTVLANGLVPSAGPEATYGALSRYVFDVGNWDNSRWVVFHGASGHPASPHYADQNAPWSDCAMVPMLYSWDRIAAEAVTSQELVPA
modifications: Pseudomonas sp. SE83
specific activity to CPC as % of that to GL-7-ACA [1]: about 1.4%
specific activity to CPC ([1]; pH 8.0): about 0.33 unit/mg protein
Relative activity to CPC (fold) ([1]; relative to wild-type): 1.0 fold
CPC conversion rate [2]: 60%

B2: S12: sixfold CPC acylase mutant, α-subunit SEQ ID NO: 7 and β-subunit SEQ ID NO: 8 (protein)
alpha: TMAAKTDREALQAALPPLSGSLSIPGLSAPVRVQRDGWGIPHIKASGEADAYRALGFVHAQDRLFQMELTRRKALGRAAEWLGAEAAEADILVRRLGMEKVCRRDFEALGAEAKDMLRAYAAGVNAFLASGAPLPIEYSLLGAEPEPWEPWHSIAVMRRLGLLMGSVWFKLWRMLALPVVGAANALKLRYDDGGQDLLCIPPGVEAERLEADLAALRPAVDALLKAMGG
beta: SNNWAVAPGRTATGRPILAGDPHRVFEIPGMYAQHHLACDRFDMIGLTVPGVPGFPHNAHNGKVAYCVTHAFMDTHDLYLEQFAEDGRTARFGNEFEPVAWRRDRIAVRGGADREFDIVETRHGPVIAGDPLEGAALTLRSVQFAETDLSFDCLTRMPGASTVAQLYDATRGWGLVDHNLVAGDVAGSIGHLVRARVPSRPRENGWLPVPGWSGEHEWRGWIPHEAMPRVIDPPGGLIVTANNRVVADDHPDYLCTDCHPPYRAERIMERLVASPAFAVDDAAAIHADTLSPHVGLLRARLEALGIQGSLPAEELRQTLIAWDGRMDAGSQAASAYNAFRRALTRLVTARSGLEQAIAHPFAAVPPGVSPQGQVWWAVPTLLRNDDAGMLKGWSWDEALSEALSVATQNLTGRGWGEEHRPRFTHPLSAQFPAWAALLNPVSRPIGGDGDTVLANGLVPSAGPEATYGALCRYVFDVGNWDNSRWVVFHGASGHPASPHYADQNAPWSDCAMVPMLYSWDRIAAEAVTSQELVPA
modifications: alpha-subunit of mutatnt CPC acylase S12 protein; beta-subunit of mutatnt CPC acylase S12 protein
specific activity to CPC, fold higher than that of the wild-type CPC acylase ([1]; pH 8.5): 8.5 fold
specific activity to CPC ([1]; pH of the reaction mixture 8.5): 5.8 unit/mg protein
7-ACA yield [2]: ≥ 90%
CPC conversion rate [2]: 98%
